We go through one protein from article doi:10.1101/2021.03.22.436414 (bioRxiv, 2021).

This data set concerns the molecule itself. The experiment in a line: TIRF microscopy of filament lengths at steady state.

B1: Recombinant S. cerevisiae septin octamer capped with Cdc11-SNAP (Cdc11-Cdc12-Cdc3-Cdc10-Cdc10-Cdc3-Cdc12-Cdc11) (complex)
chain 1: MSGIIDASSALRKRKHLKRGITFTVMIVGQSGSGRSTFINTLCGQQVVDTSTTILLPTDTSTEIDLQLREETVELEDDEGVKIQLNIIDTPGFGDSLDNSPSFEIISDYIRHQYDEILLEESRVRRNPRFKDGRVHCCLYLINPTGHGLKEIDVEFIRQLGSLVNIIPVISKSDSLTRDELKLNKKLIMEDIDRWNLPIYNFPFDEDEISDEDYETNMYLRTLLPFAIIGSNEVYEMGGDVGTIRGRKYPWGILDVEDSSISDFVILRNALLISHLHDLKNYTHEILYERYRTEALSGESVAAESIRPNLTKLNGSSSSSTTTRRNTNPFKQSNNINNDVLNPASDMHGQSTGENNETYMTREEQIRLEEERLKAFEERVQQELLLKRQELLQREKELREIEARLEKEAKIKQEE
chain 2: MSAATATAAPVPPPVGISNLPNQRYKIVNEEGGTFTVMLCGESGLGKTTFINTLFQTVLKRADGQQHRQEPIRKTVEIDITRALLEEKHFELRVNVIDTPGFGDNVNNNKAWQPLVDFIDDQHDSYMRQEQQPYRTKKFDLRVHAVLYFIRPTGHGLKPIDIETMKRLSTRANLIPVIAKADTLTAQELQQFKSRIRQVIEAQEIRIFTPPLDADSKEDAKSGSNPDSAAVEHARQLIEAMPFAIVGSEKKFDNGQGTQVVARKYPWGLVEIENDSHCDFRKLRALLLRTYLLDLISTTQEMHYETYRRLRLEGHENTGEGNEDFTLPAIAPARKLSHNPRYKEEENALKKYFTDQVKAEEQRFRQWEQNIVNERIRLNGDLEEIQGKVKKLEEQVKSLQVKKSHLK
chain 3: MSLKEEQVSIKQDPEQEERQHDQFNDVQIKQESQDHDGVDSQYTNGTQNDDSERFEAAESDVKVEPGLGMGITSSQSEKGQVLPDQPEIKFIRRQINGYVGFANLPKQWHRRSIKNGFSFNLLCVGPDGIGKTTLMKTLFNNDDIEANLVKDYEEELANDQEEEEGQGEGHENQSQEQRHKVKIKSYESVIEENGVKLNLNVIDTEGFGDFLNNDQKSWDPIIKEIDSRFDQYLDAENKINRHSINDKRIHACLYFIEPTGHYLKPLDLKFMQSVYEKCNLIPVIAKSDILTDEEILSFKKTIMNQLIQSNIELFKPPIYSNDDAENSHLSERLFSSLPYAVIGSNDIVENYSGNQVRGRSYPWGVIEVDNDNHSDFNLLKNLLIKQFMEELKERTSKILYENYRSSKLAKLGIKQDNSVFKEFDPISKQQEEKTLHEAKLAKLEIEMKTVFQQKVSEKEKKLQKSETELFARHKEMKEKLTKQLKALEDKKKQLELSINSASPNVNHSPVPTKKKGFLR
chain 4: MDPLSSVQPASYVGFDTITNQIEHRLLKKGFQFNIMVVGQSGLGKSTLINTLFASHLIDSATGDDISALPVTKTTEMKISTHTLVEDRVRLNINVIDTPGFGDFIDNSKAWEPIVKYIKEQHSQYLRKELTAQRERFITDTRVHAILYFLQPNGKELSRLDVEALKRLTEIANVIPVIGKSDTLTLDERTEFRELIQNEFEKYNFKIYPYDSEELTDEELELNRSVRSIIPFAVVGSENEIEINGETFRGRKTRWSAINVEDINQCDFVYLREFLIRTHLQDLIETTSYIHYEGFRARQLIALKENANSRSSAHMSSNAIQR
modifications: Alexafluor488 dye on the SNAP tag
With B1, the dissociation constant Kd was 84.5 ± 8.5 nM.

The Kd is the concentration at which binding is half-saturated. Read a low Kd as tighter binding.
